Test results from patent US20110129470A1.

Target: CD33 (cell surface antigen on HL60 and NB4 cells) (UniProt P20138)
Test: cell-based or functional assay

Chain of HuM195-dCK conjugate (wild type dCK chemically conjugated to the humanized anti-CD33 monoclonal antibody HuM195) (B2R8V6 whole entry): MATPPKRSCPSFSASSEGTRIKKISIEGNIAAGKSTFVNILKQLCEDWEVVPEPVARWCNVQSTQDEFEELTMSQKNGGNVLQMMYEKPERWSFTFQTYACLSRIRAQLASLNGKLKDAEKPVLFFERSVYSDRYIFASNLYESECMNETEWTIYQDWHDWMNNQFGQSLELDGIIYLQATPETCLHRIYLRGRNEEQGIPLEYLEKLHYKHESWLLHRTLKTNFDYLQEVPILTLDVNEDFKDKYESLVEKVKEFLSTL
Chain of CD33 (cell surface antigen on HL60 and NB4 cells) (P20138 18-364 limits assumed): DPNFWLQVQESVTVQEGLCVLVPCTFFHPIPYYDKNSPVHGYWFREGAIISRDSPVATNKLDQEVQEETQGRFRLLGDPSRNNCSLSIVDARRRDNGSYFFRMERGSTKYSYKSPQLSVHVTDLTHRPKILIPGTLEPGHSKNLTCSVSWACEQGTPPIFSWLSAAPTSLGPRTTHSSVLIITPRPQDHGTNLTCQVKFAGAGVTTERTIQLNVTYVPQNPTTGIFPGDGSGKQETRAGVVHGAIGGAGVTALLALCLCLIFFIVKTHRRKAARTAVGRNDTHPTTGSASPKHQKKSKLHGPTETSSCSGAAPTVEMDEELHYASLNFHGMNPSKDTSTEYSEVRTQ

HuM195-dCK conjugate (wild type dCK chemically conjugated to the humanized anti-CD33 monoclonal antibody HuM195)
additional cell killing over AraC alone (Annexin V and propidium iodide apoptosis assay), HL60 cells: 20%
cell death (Annexin V and propidium iodide apoptosis assay), HL60 cells, conjugate in combination with AraC 1 µM: 70%
cell killing (apoptosis assay), NB4 cells, conjugate with AraC 250 nM: 65%
